Experimental data taken from patent publication US20120117670A1 (U3 PHARMA, published 2012).
Where two headings read alike, the source gives them in different places.

T1: Human AXL-Fc (R&D Systems, #154-AL) (human, UniProt P30530 26-451)
T1 construct: Bought reagent; also called human AXL-Fc fusion protein; human AXL-Fc protein; not shown: Fc part of the bought fusion protein
T1 sequence: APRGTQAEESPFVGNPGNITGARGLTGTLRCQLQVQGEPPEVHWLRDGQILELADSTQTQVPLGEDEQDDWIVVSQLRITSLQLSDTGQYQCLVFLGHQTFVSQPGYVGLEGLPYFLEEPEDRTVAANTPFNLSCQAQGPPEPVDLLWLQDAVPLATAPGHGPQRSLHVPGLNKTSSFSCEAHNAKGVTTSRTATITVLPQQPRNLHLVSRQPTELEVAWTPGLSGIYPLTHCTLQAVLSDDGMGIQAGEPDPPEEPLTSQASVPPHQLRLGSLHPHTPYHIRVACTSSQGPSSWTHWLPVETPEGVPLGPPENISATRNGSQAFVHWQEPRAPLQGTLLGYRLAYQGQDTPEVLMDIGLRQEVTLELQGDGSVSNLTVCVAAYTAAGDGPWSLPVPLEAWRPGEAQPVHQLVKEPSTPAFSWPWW


Legend:
Assay in all cases: ELISA on plate-adsorbed human AXL-Fc (1 ug/ml), 5-fold antibody dilution series, AP-conjugated goat anti-human IgG, fluorescent substrate (Example 13)
[1] = target: T1, Human AXL-Fc (R&D Systems, #154-AL)
[2] = target: T1, Human AXL-Fc (R&D Systems, #154-AL); remark: listed apart in the source
[3] = target: T1, Human AXL-Fc (R&D Systems, #154-AL); remark: listed apart in the source

EC50 (read off the curve) [2]	EC50 (read off the curve) [3]	Binder	also measured
–	–	h#11B7-T25 (antibody, human IgG1, kappa, Humanized IgG1/kappa) heavy: not shown light: DIQMTQSPSSLSASVGDRVTITCRASQDIGNYLRWFQQKPGKAPKLLISGATNLAAGVPSRFSGSGSGSDFTLTISSLQPEDFATYYCLQSKESPWTFGQGTKVEIKRTVAAPSVFIFPPSDEQLKSGTASVVCLLNNFYPREAKVQWKVDNALQSGNSQESVTEQDSKDSTYSLSSTLTLSKADYEKHKVYACEVTHQGLSSPVTKSFNRGEC	EC50 (read off the curve) [1]: ~0.01 µg/mL
–	–	h#11B7-T24 (antibody, human IgG1, kappa, V domains shown, Humanized IgG1/kappa) VH: QVQLQESGPGLVKPSETLSLTCTVSGYSITSNYWGWIRQPPGKGLEWIGYITYSGSTSYNPSLKSRVTISRDTSKNQFSLKLSSVTAADTAVYYCAITTFYYWGQGTLVTVSS VL: DIQMTQSPSSLSASVGDRVTITCRASQDIGNYLRWYQQKPGKAPKLLISGATNLAAGVPSRFSGSGSGSDYTLTISSLQPEDFATYYCLQSKESPWTFGQGTKVEIKR	EC50 (read off the curve) [1]: ~0.02 µg/mL
~0.02 µg/mL	–	h#11B7-T18 (antibody, human IgG1, kappa, Humanized IgG1/kappa) heavy: not shown light: DIQMTQSPSSLSASVGDRVTITCRASQDIGNYLRWFQQKPGKAPKLLISGATNLAAGVPSRFSGSGSGSDFTLTISSLQPEDFATYYCLQSKESPWTFGQGTKVEIKRTVAAPSVFIFPPSDEQLKSGTASVVCLLNNFYPREAKVQWKVDNALQSGNSQESVTEQDSKDSTYSLSSTLTLSKADYEKHKVYACEVTHQGLSSPVTKSFNRGEC	–
–	~0.03 µg/mL	h#11B7-T13 (antibody, human IgG1, kappa, V domains shown, Humanized IgG1/kappa) VH: QVQLQESGPGLVKPSETLSLTCTVSGYSITSNYWGWIRQPPGKGLEWIGYITYSGSTSYNPSLKSRVSISRDTSKNQFSLKLSSVTAADTAVYYCAITTFYYWGQGTLVTVSS VL: DIQMTQSPSSLSASVGDRVTITCRASQDIGNYLRWYQQKPGKAPKLLISGATNLAAGVPSRFSGSGSGSDFTLTISSLQPEDFATYYCLQSKESPWTFGQGTKVEIKR	–
–	~0.02 µg/mL	h#11B7-T8 (antibody, human IgG1, kappa, V domains shown, Humanized IgG1/kappa) VH: QVQLQESGPGLVKPSETLSLTCTVSGYSITSNYWGWIRQPPGKGLEWIGYITYSGSTSYNPSLKSRVSISRDTSKNQFSLKLSSVTAADTAVYYCAITTFYYWGQGTLVTVSS VL: DIQMTQSPSSLSASVGDRVTITCRASQDIGNYLRWFQQKPGKAPKLLISGATNLAAGVPSRFSGSGSGSDYTLTISSLQPEDFATYYCLQSKESPWTFGQGTKVEIKR	–
~0.02 µg/mL	–	h#11B7-T14 (antibody, human IgG1, kappa, V domains shown, Humanized IgG1/kappa) VH: QVQLQESGPGLVKPSETLSLTCTVSGYSITSNYWGWIRQPPGKGLEWMGYITYSGSTSYNPSLKSRITISRDTSKNQFSLKLSSVTAADTAVYYCAITTFYYWGQGTLVTVSS VL: DIQMTQSPSSLSASVGDRVTITCRASQDIGNYLRWYQQKPGKAPKLMISGATNLAAGVPSRFSGSGSGSDYTLTISSLQPEDFATYYCLQSKESPWTFGQGTKVEIKR	–
~0.02 µg/mL	–	h#11B7-T16 (antibody, human IgG1, kappa, V domains shown, Humanized IgG1/kappa) VH: QVQLQESGPGLVKPSETLSLTCTVSGYSITSNYWGWIRQPPGKGLEWMGYITYSGSTSYNPSLKSRITISRDTSKNQFSLKLSSVTAADTAVYYCAITTFYYWGQGTLVTVSS VL: DIQMTQSPSSLSASVGDRVTITCRASQDIGNYLRWFQQKPGKAPKLMISGATNLAAGVPSRFSGSGSGSDFTLTISSLQPEDFATYYCLQSKESPWTFGQGTKVEIKR	–
–	~0.02 µg/mL	h#11B7-T9 (antibody, human IgG1, kappa, V domains shown, Humanized IgG1/kappa) VH: QVQLQESGPGLVKPSETLSLTCTVSGYSITSNYWGWIRQPPGKGLEWIGYITYSGSTSYNPSLKSRVSISRDTSKNQFSLKLSSVTAADTAVYYCAITTFYYWGQGTLVTVSS VL: DIQMTQSPSSLSASVGDRVTITCRASQDIGNYLRWFQQKPGKAPKLMISGATNLAAGVPSRFSGSGSGSDFTLTISSLQPEDFATYYCLQSKESPWTFGQGTKVEIKR	–
~0.02 µg/mL	–	h#11B7-T19 (antibody, human IgG1, kappa, V domains shown, Humanized IgG1/kappa) VH: QVQLQESGPGLVKPSETLSLTCTVSGYSITSNYWGWIRQPPGKGLEWMGYITYSGSTSYNPSLKSRITISRDTSKNQFSLKLSSVTAADTAVYYCAITTFYYWGQGTLVTVSS VL: DIQMTQSPSSLSASVGDRVTITCRASQDIGNYLRWYQQKPGKAPKLMISGATNLAAGVPSRFSGSGSGSDFTLTISSLQPEDFATYYCLQSKESPWTFGQGTKVEIKR	–
–	–	h#11B7-T21 (antibody, human IgG1, kappa, V domains shown, Humanized IgG1/kappa) VH: QVQLQESGPGLVKPSETLSLTCTVSGYSITSNYWGWIRQPPGKGLEWIGYITYSGSTSYNPSLKSRVTISRDTSKNQFSLKLSSVTAADTAVYYCAITTFYYWGQGTLVTVSS VL: DIQMTQSPSSLSASVGDRVTITCRASQDIGNYLRWYQQKPGKAPKLMISGATNLAAGVPSRFSGSGSGSDYTLTISSLQPEDFATYYCLQSKESPWTFGQGTKVEIKR	EC50 (read off the curve) [1]: ~0.02 µg/mL
–	~0.03 µg/mL	h#11B7-T7 (antibody, human IgG1, kappa, V domains shown, Humanized IgG1/kappa) VH: QVQLQESGPGLVKPSETLSLTCTVSGYSITSNYWGWIRQPPGKGLEWIGYITYSGSTSYNPSLKSRVSISRDTSKNQFSLKLSSVTAADTAVYYCAITTFYYWGQGTLVTVSS VL: DIQMTQSPSSLSASVGDRVTITCRASQDIGNYLRWYQQKPGKAPKLMISGATNLAAGVPSRFSGSGSGSDYTLTISSLQPEDFATYYCLQSKESPWTFGQGTKVEIKR	–
–	–	h#11B7-T23 (antibody, human IgG1, kappa, V domains shown, Humanized IgG1/kappa) VH: QVQLQESGPGLVKPSETLSLTCTVSGYSITSNYWGWIRQPPGKGLEWIGYITYSGSTSYNPSLKSRVTISRDTSKNQFSLKLSSVTAADTAVYYCAITTFYYWGQGTLVTVSS VL: DIQMTQSPSSLSASVGDRVTITCRASQDIGNYLRWFQQKPGKAPKLMISGATNLAAGVPSRFSGSGSGSDFTLTISSLQPEDFATYYCLQSKESPWTFGQGTKVEIKR	EC50 (read off the curve) [1]: ~0.01 µg/mL
–	–	h#11B7-T22 (antibody, human IgG1, kappa, Humanized IgG1/kappa) heavy: not shown light: DIQMTQSPSSLSASVGDRVTITCRASQDIGNYLRWFQQKPGKAPKLLISGATNLAAGVPSRFSGSGSGSDYTLTISSLQPEDFATYYCLQSKESPWTFGQGTKVEIKRTVAAPSVFIFPPSDEQLKSGTASVVCLLNNFYPREAKVQWKVDNALQSGNSQESVTEQDSKDSTYSLSSTLTLSKADYEKHKVYACEVTHQGLSSPVTKSFNRGEC	EC50 (read off the curve) [1]: ~0.02 µg/mL
~0.02 µg/mL	–	h#11B7-T15 (antibody, human IgG1, kappa, Humanized IgG1/kappa) heavy: not shown light: DIQMTQSPSSLSASVGDRVTITCRASQDIGNYLRWFQQKPGKAPKLLISGATNLAAGVPSRFSGSGSGSDYTLTISSLQPEDFATYYCLQSKESPWTFGQGTKVEIKRTVAAPSVFIFPPSDEQLKSGTASVVCLLNNFYPREAKVQWKVDNALQSGNSQESVTEQDSKDSTYSLSSTLTLSKADYEKHKVYACEVTHQGLSSPVTKSFNRGEC	–
~0.02 µg/mL	–	h#11B7-T17 (antibody, human IgG1, kappa, V domains shown, Humanized IgG1/kappa) VH: QVQLQESGPGLVKPSETLSLTCTVSGYSITSNYWGWIRQPPGKGLEWMGYITYSGSTSYNPSLKSRITISRDTSKNQFSLKLSSVTAADTAVYYCAITTFYYWGQGTLVTVSS VL: DIQMTQSPSSLSASVGDRVTITCRASQDIGNYLRWYQQKPGKAPKLLISGATNLAAGVPSRFSGSGSGSDYTLTISSLQPEDFATYYCLQSKESPWTFGQGTKVEIKR	–
~0.02 µg/mL	–	h#11B7-T20 (antibody, human IgG1, kappa, V domains shown, Humanized IgG1/kappa) VH: QVQLQESGPGLVKPSETLSLTCTVSGYSITSNYWGWIRQPPGKGLEWMGYITYSGSTSYNPSLKSRITISRDTSKNQFSLKLSSVTAADTAVYYCAITTFYYWGQGTLVTVSS VL: DIQMTQSPSSLSASVGDRVTITCRASQDIGNYLRWYQQKPGKAPKLLISGATNLAAGVPSRFSGSGSGSDFTLTISSLQPEDFATYYCLQSKESPWTFGQGTKVEIKR	–
–	~0.04 µg/mL	h#11B7-T12 (antibody, human IgG1, kappa, V domains shown, Humanized IgG1/kappa) VH: QVQLQESGPGLVKPSETLSLTCTVSGYSITSNYWGWIRQPPGKGLEWIGYITYSGSTSYNPSLKSRVSISRDTSKNQFSLKLSSVTAADTAVYYCAITTFYYWGQGTLVTVSS VL: DIQMTQSPSSLSASVGDRVTITCRASQDIGNYLRWYQQKPGKAPKLMISGATNLAAGVPSRFSGSGSGSDFTLTISSLQPEDFATYYCLQSKESPWTFGQGTKVEIKR	–
–	~0.02 µg/mL	h#11B7-T11 (antibody, human IgG1, kappa, V domains shown, Humanized IgG1/kappa) VH: QVQLQESGPGLVKPSETLSLTCTVSGYSITSNYWGWIRQPPGKGLEWIGYITYSGSTSYNPSLKSRVSISRDTSKNQFSLKLSSVTAADTAVYYCAITTFYYWGQGTLVTVSS VL: DIQMTQSPSSLSASVGDRVTITCRASQDIGNYLRWFQQKPGKAPKLLISGATNLAAGVPSRFSGSGSGSDFTLTISSLQPEDFATYYCLQSKESPWTFGQGTKVEIKR	–
–	~0.02 µg/mL	h#11B7-T10 (antibody, human IgG1, kappa, V domains shown, Humanized IgG1/kappa) VH: QVQLQESGPGLVKPSETLSLTCTVSGYSITSNYWGWIRQPPGKGLEWIGYITYSGSTSYNPSLKSRVSISRDTSKNQFSLKLSSVTAADTAVYYCAITTFYYWGQGTLVTVSS VL: DIQMTQSPSSLSASVGDRVTITCRASQDIGNYLRWYQQKPGKAPKLLISGATNLAAGVPSRFSGSGSGSDYTLTISSLQPEDFATYYCLQSKESPWTFGQGTKVEIKR	–
